In patent publication CN114652853A (JIANGSU ZHEREI MEDICINE CO LTD; SHANGHAI TENGDI MEDICINE CO …, dated 2022):

T1: 人源IL-4R (human IL-4R), overexpressed on LN229, U251 and HEK293 cells (human, UniProt P24394 26-825)
T1 sequence (looked up): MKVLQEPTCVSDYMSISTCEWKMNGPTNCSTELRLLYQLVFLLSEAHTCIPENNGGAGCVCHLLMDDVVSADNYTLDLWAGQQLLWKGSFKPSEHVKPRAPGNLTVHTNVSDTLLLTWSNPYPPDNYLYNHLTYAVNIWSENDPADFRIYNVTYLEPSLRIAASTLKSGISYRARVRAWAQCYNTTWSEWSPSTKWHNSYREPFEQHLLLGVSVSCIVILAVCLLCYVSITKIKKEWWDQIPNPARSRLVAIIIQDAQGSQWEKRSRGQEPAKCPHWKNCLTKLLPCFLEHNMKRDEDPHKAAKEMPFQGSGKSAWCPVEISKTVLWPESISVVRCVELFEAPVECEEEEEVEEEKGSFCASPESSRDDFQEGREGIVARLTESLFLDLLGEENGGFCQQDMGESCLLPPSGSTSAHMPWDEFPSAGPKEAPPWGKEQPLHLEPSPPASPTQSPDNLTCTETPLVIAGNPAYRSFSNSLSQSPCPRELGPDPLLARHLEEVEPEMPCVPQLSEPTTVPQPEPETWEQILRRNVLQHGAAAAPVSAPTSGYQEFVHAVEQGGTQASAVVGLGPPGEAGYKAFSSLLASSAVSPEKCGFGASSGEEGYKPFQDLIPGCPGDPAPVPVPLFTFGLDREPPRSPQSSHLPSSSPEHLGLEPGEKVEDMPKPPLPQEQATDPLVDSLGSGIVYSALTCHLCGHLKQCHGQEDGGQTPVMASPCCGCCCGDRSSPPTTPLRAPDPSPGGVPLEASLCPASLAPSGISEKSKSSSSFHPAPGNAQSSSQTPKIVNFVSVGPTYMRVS

B1: 25G7-C1, DAR=5.86 (antibody, human IgG1, kappa, V domains shown)
VH: EVQLVESGGGLVQPGGSLRLSCAASGFTFSDYGMHWVRQAPGKGLEWVAFISSGSSIIYYADIVKGRSTISRDNAKNTLYLQMNSLRAEDTAVYYCTRGNKRGFFDYWGQGTLVTVSS
VL: EIVLTQSPATLSLSPGERATLSCRASSSVPYMYWYQQKPGQAPRLLIYLTSNLASGIPARFSGSGSGTDFTLTISSLEPEDFAVYYCQQWRAYPPMLTFGGGTKVEIKR
modifications: 依喜替康类似物 (exatecan analogue) joined through a linker; measured DAR 5.86; attachment residues not stated
B2: 25G7-C1, DAR=3.52 (antibody, human IgG1, kappa, V domains shown)
VH: B1 VH
VL: B1 VL
modifications: 依喜替康类似物 (exatecan analogue) joined through a linker; measured DAR 3.52; attachment residues not stated

Target: T1, 人源IL-4R (human IL-4R), overexpressed on …
Experiment: cell-based or functional assay

Binder | IC50, 体外毒性 in HEK293-IL4R细胞 [nM]
B1 | 0.458
B2 | 3.29
